In the nanobody polyreactivity screen of Harvey et al. (2022):

Assay: yeast display, Sf9 membrane polyspecificity reagent, FACS + sequencing; frameworks hold sequencing errors
How it was run: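 Using colony PCR, genes from sorted yeast display clones were amplified, then sequenced on MiSeq at 2 × 250 and filtered by CDR length. The clones had been stained with 10% biotinylated, detergent-solubilized Sf9 membrane reagent for 1 hour at 4 °C and sorted by FACS into low and high (top ~1%) gates on anti-HA and streptavidin fluorescence. Polyreactivity labels come from the gate of origin.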

Sequence | polyreactivity (PSR sort gate)
QVQLVESGGGLVQAGGSLRLSCAASGSIFADYTMGWYRQAPGKERELVAAISSDDSTYYADSVKGRFTISRDNAKNTVYLQMNSLKPEDTAVYYCNADGSIGPEEYWGQGTQVTVSS | low polyreactivity
QVQLVESCGGLVHAGGSLRLSCAASGRSFYRYAMGWYRKAPGKERELVAAISSGGSTYYADSVKGRFTISRDNANNTDYLQMNSLKPEDTAVYYCNADYGRRIHMDYWGQGTQVTVSS | low polyreactivity
QVQLVESGGGLVQAGGSLRLSCAASGFTFSYYAMGWYREAPGKERELVAAISQSGGSKYYADSVKGRFIISRDNAKNTVYLQMNSLKPEDTAVYYCNRGLRSHQSDDYWGLGTQVTVSS | high polyreactivity
QVQLVESGGRLVQAGGSLRLSCAASGRLFASNAMGWYLQAPGTEMELVAGNSRNGGSTFYADSVKGRFTISRDNAKNTVYLQMNSRKPEDSAVYYCARYYTHSGGYRDRIYYFWGQGTQVTVSS | low polyreactivity
QVQLVESGGGLVQAGGSLRLSCAASGSTLYGYVMGWYRQAPGKERELVADITWSGGSTYYADSVKGRFIISRDNAKNTVYLQMNSLKPEDTAVYYCNADRYGIYYYSRLPFDYWGQGTQVTVSS | low polyreactivity
QVQLVESGGGLVQAGGSLRLSCAASGSIFTVYTMGWYRQAPGKERELVAAINSRGGTTYYADSVKGRFTISRDNAKNTVYLQMNSLKPEDTAVYYCAAKQRPKSYGPGHYYWGQGTQVTVSS | high polyreactivity
QVQLVETGGGLVQAGGSLRLSCAASGRIFSPYALGWYRQAPGKERELVAAISYDDGITYYADSVKGRFTISRDNAKNTVYLQMNSLKPEDTAVYYCAADSVTRPAGDYWGQGTQVTVSS | low polyreactivity
QVQLVESGGGLVQAGGSLRLSCAASGSIFGWNAMGWYRQAPGKERELVAAISSGGSTYYADSVKGRFTISRDNAKNTVSLQMNSLKPEDTAVYYCNAYFQYYDYWGQGTQVTVSS | low polyreactivity
QVQRVESGGGLDQAGGSLRLSCAAYGRTFGLNAMGWYRQAPGKESELVAVISFGDGGKYYADSVKGRFTISRDNAKHTVYLQMNSLKPEDTAVYYCATEYQSTSVWGGHLVINPYDYWGQGTQVTVSS | low polyreactivity
QVQLVESGGGLVQAGGSLRVSCAASGGIFWYYTMGWYRQAPGKERELVATISSGGRTYYADSVKGRFTISRDNAKNTVYLQMNSLKPEDTAVYYCAAVGWYHDYYWGQGTQVTVSS | high polyreactivity
QVQLVESGGGLVQAGGSLRLICAASGRIFHGNAMGWYRQAPGKERELVAAISRRGGSTYYADSVKGRFTISRDNAKNTVYLQMNSLKPEDTAVYYCASVYYNGIRYGYWGQGTQVTVSS | high polyreactivity
QVQVVESGGGLVQAGGSLRLSCAASGSFFTRYAIGWYRQAPGKERELVAAISGSGGSTYYADSVKGLFTISRDNAKITVSLQMNSLKPEDTAVYYCAARDYWGQGTQVTVSS | high polyreactivity
QVQLVESGGGLVQAGGSLRLSCAASGITFVDYDMGWYRQAPGKERELVAAITTGSSTYYADSVKGRFTISRDNAKNTVYLQMNSLKPEDTAVYYCARVFEYDYYQQWSYGYWGQGTQVTVSS | low polyreactivity
QVQLVESGGGLVQAGGSLRLSCAASGSTFAYYTMGWYRQAPGKERELVAAITSGGRTSYADSVKGRFTISRDNAKNTVYLQMNSLKPEDTAVYYCAKGRKPGYYYWGQGTQVTVSS | high polyreactivity
QVQLVESGGGLVQAGGSLRLSCAASGSIFWNAMGWNKQAPGKERELVAAISWSGTRTYYADSVKGRFTISRDNAKNTVYLQMNSLKPEDTAVYYCNAVQWNAYYYWGQGTQVTVSS | high polyreactivity
QVQLVESGGGLVQAGGSLRLSCAASGITFKRYAMGWYRQAPGKERELVAAITISAGSTYYADSVKGRFTISRDNAKNNVYLQMNSLKPEDTAVYYCAAESYGSWYYYWGQGTQVTVSS | high polyreactivity
QVQLVESGGGLVQAGGSLRLSCAASGSTFSNYAMGWYRQAPGKERELVAGIDWSGGSTYYADSVKGRFTISRDNAKNTVYLQMNSLKPEDTAVYYCAKRVWYHGRKLRGYYWGQGTQVTVSS | low polyreactivity
QVQLVESGGSLVQAGGSLRLSCAASGFIFIRYAMGWYRQAPGKERELVAAITTSTGRTYYADSVKGRFTISRDNAKNTVYLQMNSLKPEDTAVYYCAAVPWKRYDYYTPFARGYWGQGTQVTVSS | low polyreactivity
QVQLQESGGGLVQAGGSLRLSCAASGTIFRISDMGSYRQAPGKEREFVAAITYGANTYYADSGKGRFTISRDNAKNTVSLQMNSLKPEDTAVYYCAVPPVKETILDYWGQGTQVTVSS | low polyreactivity
QVQLVESGGGLVQAGGSLRLSCAASGLTFDKNVMGWYRQAHGKERELVAAISRSGGTTYYADSVKGRFTISRDNAKYTVYLQMNSLKPEDTAVYYCAKRAWTGYGYYYWGQGTQVTVSS | high polyreactivity
QVQLVESGGGLVQAGGSLRLSCASSGNTFKTNAMGWYRQAPGKERELVAAISSSGSTYYADSVKGRFTISRDNAKNTVYLQMNSLKPEDTAVYYCAVTYRRFYYWGQGTQVTVSS | high polyreactivity
QVQLVESGGGLVQAGGSLRLSCPASGITFHGYAMGWYTQEPGKERELVAAITRGGSTYYADSVKGRFTISRDNAKNTVYLQMNSLKPEDTAVYYCAARRVGYSTNYYHYNYWGQGTQVSVSS | high polyreactivity
